Target: T1, Rab14 (fluorescence titration) (human, UniProt P61106 1-215)
T1 construct: Rab14
Assay: other fluorescence titration; fluorescence titration assay (Supplementary Fig. 8); conditions not stated in the text shown
Details: both partners purified

- Kd: ~0.36 nM
B1: CHML (fluorescence titration) (natural protein)
chain: MADNLPTEFDVVIIGTGLPESILAAACSRSGQRVLHIDSRSYYGGNWASFSFSGLLSWLKEYQQNNDIGEESTVVWQDLIHETEEAITLRKKDETIQHTEAFCYASQDMEDNVEEIGALQKNPSLGVSNTFTEVLDSALPEESQLSYFNSDEMPAKHTQKSDTEISLEVTDVEESVEKEKYCGDKTCMHTVSDKDGDKDESKSTVEDKADEPIRNRITYSQIVKEGRRFNIDLVSKLLYSQGLLIDLLIKSDVSRYVEFKNVTRILAFREGKVEQVPCSRADVFNSKELTMVEKRMLMKFLTFCLEYEQHPDEYQAFRQCSFSEYLKTKKLTPNLQHFVLHSIAMTSESSCTTIDGLNATKNFLQCLGRFGNTPFLFPLYGQGEIPQGFCRMCAVFGGIYCLRHKVQCFVVDKESGRCKAIIDHFGQRINAKYFIVEDSYLSEETCSNVQYKQISRAVLITDQSILKTDLDQQTSILIVPPAEPGACAVRVTELCSSTMTCMKDTYLVHLTCSSSKTAREDLESVVKKLFTPYTETEINEEELTKPRLLWALYFNMRDSSGISRSSYNGLPSNVYVCSGPDCGLGNEHAVKQAETLFQEIFPTEEFCPPPPNPEDIIFDGDDKQPEAPGTNNVVMAKLESSEESKNLESPEKHLQN
notes: choroideremia-like (CHML, REP2)
